Target: T1, human EphA2 antigen (human, UniProt P29317 24-534, limits assumed)
T1 construct: also called human EphA2 tumor antigen
Test: kinetic parameters, ratio to G5 reference

T1 sequence (P29317 24-534 limits assumed): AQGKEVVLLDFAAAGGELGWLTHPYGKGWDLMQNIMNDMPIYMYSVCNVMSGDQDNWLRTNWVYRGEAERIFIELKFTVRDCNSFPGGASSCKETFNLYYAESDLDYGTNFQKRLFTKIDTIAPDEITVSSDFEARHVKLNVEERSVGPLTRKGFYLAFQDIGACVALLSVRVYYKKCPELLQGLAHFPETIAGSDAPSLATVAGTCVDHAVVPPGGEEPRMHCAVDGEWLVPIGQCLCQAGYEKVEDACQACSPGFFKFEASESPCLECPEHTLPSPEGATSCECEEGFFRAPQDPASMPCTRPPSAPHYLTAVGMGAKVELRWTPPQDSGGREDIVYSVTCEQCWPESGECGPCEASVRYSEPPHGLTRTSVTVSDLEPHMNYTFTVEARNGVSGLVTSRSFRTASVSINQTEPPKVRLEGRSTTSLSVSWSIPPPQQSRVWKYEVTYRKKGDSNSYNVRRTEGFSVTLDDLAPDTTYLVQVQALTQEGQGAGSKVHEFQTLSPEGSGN

fold faster Koff as compared to G5: ~3 fold | fold faster Kon as compared to G5: ~3.5 fold
B1: 3F2 anti-EphA2 antibody (antibody, V domains shown)
VH: EVQLVESGGGVVRPGGSLRLSCAASGFTVSDYSMNWVRQAPGKGLEWIGFIRNKANAYTTEYSASVKGRFTISRDDSKNTLYLQMNSLKTEDTAVYYCTTYPRYHAMDSWGQGTMVTVSS
VL: AIQLTQSPSSLSASVGDRVTITCRASQSISNNLHWYLQKPGQSPQLLIYYGFQSISGVPSRFSGSGSGTDFTLTISSLQPEDFATYYCQQANSWPLTFGGGTKLEIK
